B1: library; numbered along this chain (parent)
chain: MRKPRAAVGSGHRKQAASQEGRQKHAKNNSQAKPSACDGLARQPEEVVLQASVSSYHLFRDVAEVTAFRGSLLSWYDQEKRDLPWRRRAEDEMDLDRRAYAVWVSEVMLQQTQVATVINYYTGWMQKWPTLQDLASASLEEVNQLWAGLGYYSRGRRLQEGARKVVEELGGHMPRTAETLQQLLPGVGRYTAGAIASIAFGQATGVVDGNVARVLCRVRAIGADPSSTLVSQQLWGLAQQLVDPARPGDFNQAAMELGATVCTPQRPLCSQCPVESLCRARQRVEQEQLLASGSLSGSPDVEECAPNTGQCHLCLPPSEPWDQTLGVVNFPRKASRKPPREESSATCVLEQPGALGAQILLVQRPNSGLLAGLWEFPSVTWEPSEQLQRKALLQELQRWAGPLPATHLRHLGEVVHTFSHIKLTYQVYGLALEGQTPVTTVPPGARWLTQEEFHTAAVSTAMKKVFRVYQGQQPGTCMGSKRSQVSSPCSRKKPRMGQQVLDNFFRSHISTDAHSLNSAAQ

Variants of: B1
Assay: 8OG:A repair function score (normalized; synonymous = 0, nonsense = -1) (normalized log-likelihood score); higher = more repair activity (WT-like)
Settings: with 8OG:A DNA repair reporter (GFP) in HEK-293 MUTYH KO cells
Method in brief: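 MUTYH knockout HEK-293 cells carrying lentiviral MUTYH cDNA NNN codon-scan libraries were grown with 10 pg/ml doxycycline and co-transfected with mCherry and a GFP reporter of 8OG:A repair. Viable mCherry+ cells were sorted at 72 h into GFP+ (repair) and GFP− bins, with three replicates per tile, and tile amplicons were sequenced. Rosace fitness scores for each tile were turned into a normalized repair function score anchored on the synonymous and nonsense distributions. Synonymous medians were set to 0 and nonsense medians to -1, and variants below 300 counts per million at the start were dropped.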

8OG:A repair function score of substitutions, site by site:
G356: C -0.0641 | K -0.0901 | A -0.11 | W -0.0772 | D -0.142 | L -0.2 | S -0.118 | E -0.141 | Q 0.00571 | N -0.277 | P -0.0644 | M -0.207 | R -0.153 | F -0.253 | T -0.197 | I -0.348 | Y -0.0505 | H -0.148 | V -0.13
V362: S -0.406 | E -0.932 | F -0.662 | A -0.284 | Y -0.434 | D -0.671 | W -0.624 | Q -0.414 | M -0.403 | K -0.0434 | I -0.125 | C -0.232 | T -0.028 | N -0.669 | H -0.608 | P -0.881 | L -0.0488 | G -0.901 | R -0.236
E350: N -0.112 | G -0.128 | L -0.12 | D -0.304 | R -0.162 | T 0.0414 | S 0.0422 | M 0.00868 | C -0.0435 | V -0.0826 | A -0.188 | F -0.339 | Y -0.185 | I -0.103 | W 0.0193 | Q -0.13 | P -1.12 | K -0.17
Q351: D -0.266 | N -0.125 | C -0.0209 | R 0.0269 | S -0.0771 | G -0.16 | V 0.000574 | Y 0.023 | L -0.0629 | P -0.756 | K 0.044 | F -0.101 | W -0.0304 | H 0.0225 | A -0.00592 | E -0.219 | I -0.0185 | T -0.0645 | M 0.0542
G353: P -0.17 | N -0.00787 | E -0.227 | S -0.0386 | F -0.0929 | R -0.038 | K -0.127 | Q -0.109 | I -0.129 | T 0.0569 | W -0.099 | V -0.123 | H -0.144 | L -0.135 | Y -0.16 | C -0.0857 | A 0.00991 | D 0.0347 | M -0.178
L349: T -0.236 | C -0.018 | F -0.112 | E -0.993 | R -1.15 | W -0.668 | N -0.957 | M 0.0308 | Q -1.83 | A -0.352 | D -0.966 | P -0.901 | G -1.03 | H -0.39 | K -1.07 | Y -0.257 | V -0.0456 | I 0.0298 | S -0.842
P352: Y -0.175 | D -0.0437 | V -0.096 | K 0.00765 | R -0.124 | S -0.0991 | A -0.0351 | W -0.38 | F -0.188 | G -0.0543 | I -0.461 | L -0.0502 | T 0.0253 | E -0.0129
P365: A -0.0399 | L -0.0397 | S -0.116 | D 0.00966 | E 0.196 | N 0.119 | Q -0.147 | M -0.184 | C 0.0287 | I 0.146 | K 0.177 | T -0.334 | G -0.137 | V 0.0242 | F -0.154 | R -0.0845 | H -0.038
A354: L -0.0264 | E -0.0284 | M -0.19 | F -0.0389 | Q -0.0822 | K -0.061 | N -0.255 | I -0.0486 | Y -0.11 | C -0.078 | P 0.0108 | G -0.0387 | T -0.0601 | D -0.0478 | H -0.107 | W -0.0982 | V 0.0356 | S -0.0885 | R -0.0437
R364: Y -0.593 | M -0.577 | N -0.633 | V -0.616 | F -0.639 | I -0.878 | A -0.285 | Q -0.529 | G -0.353 | P -0.519 | L -0.747 | D -0.614 | S -0.2 | H -0.405 | W -1.11 | C -0.262 | T -0.411 | K -0.245 | E -0.504
L361: P -1.01 | C -0.101 | A -0.284 | W -0.755 | E -1.08 | S -0.625 | N -0.575 | M 0.0584 | I -0.107 | R -1.12 | G -0.729 | H -1.22 | Q -0.666 | V -0.0292 | T -0.222 | D -1.06 | F -0.49 | Y -0.508 | K -0.984
L355: P -0.132 | D -0.182 | Q -0.061 | Y 0.0403 | C -0.0489 | I -0.0806 | E 0.0516 | W -0.0689 | A 0.00558 | H -0.0638 | G 0.0028 | R -0.00513 | V -0.0573 | M -0.0213 | K -0.0816 | S -0.0259 | F -0.0288 | N 0.0266 | T 0.059
I359: V -0.0354 | E -0.818 | L 0.0476 | F 0.0413 | T 0.0861 | C -0.249 | A -0.485 | K -0.27 | H -0.143 | D -0.946 | G -0.91 | N -0.425 | W 0.0132 | P -1.08 | Y -0.266 | S -0.465 | Q -0.322 | R -0.51 | M -0.00943
A357: E -0.0948 | P 0.04 | C 0.0134 | R -0.0515 | V -0.0294 | L -0.0718 | K -0.152 | W -0.104 | G -0.0641 | S 0.0171 | N 0.104 | I -0.0394 | Y -0.118 | M -0.0956 | F -0.0934 | H -0.147 | T -0.0252 | D -0.193 | Q 0.125
Q358: A -0.219 | T 0.145 | V 0.112 | N -0.131 | S -0.152 | Y -0.283 | W -0.308 | M -0.074 | D -0.342 | G -0.334 | I -0.163 | F -0.316 | R 0.137 | P 0.069 | C 0.0229 | L 0.00809 | K 0.0561 | H -0.152 | E -0.0404
Q363: D -0.431 | M -0.284 | E -0.341 | A -0.167 | R 0.0264 | N -0.441 | T -0.255 | L -0.242 | P -0.208 | F -0.479 | W -0.451 | I -0.184 | G -0.38 | H 0.0355 | S -0.169 | Y -0.408 | K -0.227 | V -0.293 | C -0.306
L360: C -0.171 | I -0.403 | D -1.19 | K -1.23 | R -1.17 | Q -0.916 | S -1.32 | Y -0.447 | H -1.17 | A -0.845 | N -1.27 | E -1.15 | V -0.666 | W -1.54 | M -0.352 | P -1.26 | T -1.26 | F -0.195 | G -0.95
V348: C -0.104 | M -0.551 | S -1.25 | D -1.83 | K -1.21 | N -1.04 | E -0.925 | A -0.589 | W -1.28 | L -0.351 | Q -1.64 | G -1.15 | H -1.31 | T -0.732 | I -0.0535 | R -1.43 | Y -1.02 | P -1.11 | F -0.996
